{"source": "patent US20260234290A1", "about": "“Antibodies to Stat3 Decoy Oligonucleotide” (The Regents of the University of California, priority 2023, published 2026)", "molecules": {"B1": {"name": "SP1-B3: anti-CS3D Fab from RAPID sorting of round 4; VH SEQ ID NO: 3, VL SEQ ID NO: 4 (antibody, V domains shown)", "VH": "QVTLQQSGPGLVKPSQTLSLTCAISGDSVSSNSAAWNWIRQSPSRGLEWLGRTYYRSKWFTYYAASVKGRISINRDTSKNQFSLQLNSVTPDDTAVYFCARGSGGYIDHWGQGTLVTVSS", "VL": "QAVLTQPSSLSASPGASASLTCTLRSGINVDSYRIYWYQQKPGSPPQYLLRYKSDSDKQQGSGVPSRFSGSKDASANAGILLISGLQSEDEADYYCMIWHSSAVVFGGGTKLTVL"}}, "test_system": "CS3D", "experiment": "BLI koff of purified Fabs from CS3D biopanning", "type": "binding", "protocol": "First, standard biopanning (FIG. 1) was performed with Ag immobilized magnetic beads. A total of six rounds were performed with increasing stringency of washes and decreasing amounts of Ag per round. Assuming strong enrichment occurred continuously throughout the campaign, 95 colonies were randomly picked each round 4-6 (285 clones total) for candidate hit screening.\nIn efforts to identify improved binders, BIAS was performed with identical clones picked previously that were randomly sequenced. […] Therefore, we hypothesized that strong growth/display propensity biases were a dominant factor during the campaign, leading primarily to the identification of low-affinity binders.\nFluorescent activated sorting was applied to round 4 as both the population percentage and the normalized MFI of the shoulder population are the highest (FIG. 7). The shoulder population (top ~4%) was sorted along with the majority population (bottom ~96%) and both populations were used to infect TG1 (E. coli) cells. […] BIAS hits of the top ~4% sorted population were sequenced, and a new candidate binder, SP1-B3, was identified, along with identical clones of previously identified low-affinity binders.\nAll buffers were filter sterilized with […] filters prior to preparing samples. Black 384 well microplates were used to set up BLI plates and streptavidin tips were purchased by Sartorius. Kinetic constants of Fabs were determined by Octet RED384 system with continuous shaking at 1000 rpm in RT. Prior to the experiment, biological tips (model name) were presoaked in buffer to allow for equilibration for 1 hour. Data were analyzed using 1:1 interaction model on the ForteBio data analysis software 12.0.\nFreshly transformed BL21 (DE3) E. coli single colony clones were picked and inoculated into 50 ml of 2×YT media containing 2% glucose and […] Ampicillin. Starter cultures were grown overnight at 37 °C with 200 rpm shaking. […]", "data": [{"molecule": "B1", "values": [{"measurement": "koff fold lower than the Fab with the highest koff", "result": "> 20", "unit": "fold"}, {"measurement": "koff fold lower than the previously identified Fab with the lowest koff", "result": "~ 3 fold"}, {"measurement": "koff", "setting": "measured at 2 μM Fab", "result": 0.0211, "unit": "s⁻¹"}]}]}
